Test [1] has as its target T1, human NKG2D (recombinant mFc-tagged dimer) (human, UniProt P26718 78-216).
T1 construct: also called hNKG2D
T1 sequence (looked up): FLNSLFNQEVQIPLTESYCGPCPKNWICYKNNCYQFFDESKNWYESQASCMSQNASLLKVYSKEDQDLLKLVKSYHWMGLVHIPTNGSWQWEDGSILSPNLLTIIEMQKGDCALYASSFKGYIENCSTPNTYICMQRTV
Put plainly: SPR, steady state, control.

The next test addresses human FcRn (human, UniProt P55899 24-297; P61769 21-119). Put plainly: SPR, pH 6.0, steady state; pH 6.0; second replicate. (Surface plasmon resonance follows binding to a sensor surface in real time, without labels.)
The target of another test is T2, human CD16b (human, UniProt O75015 17-200, limits assumed).
T2 construct: also called FcγRIIIb
T2 sequence (O75015 17-200 limits assumed): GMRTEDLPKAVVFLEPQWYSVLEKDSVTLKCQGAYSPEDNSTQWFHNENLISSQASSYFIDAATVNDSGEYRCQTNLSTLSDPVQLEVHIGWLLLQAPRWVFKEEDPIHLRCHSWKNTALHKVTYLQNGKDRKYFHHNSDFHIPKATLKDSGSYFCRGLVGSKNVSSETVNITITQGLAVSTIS
Kind of test: SPR, steady state.

For test [2], the target named is T3, human BAFF-R expressed on cells (human, UniProt Q96RJ3 1-184).
T3 construct: Cell surface BAFF-R, endogenous on B cell lines and primary B cells or overexpressed on isogenic CHO cells; also called hBAFF-R; hBAFF-R-CHO
Kind of test: KinExA, BAFF-R-CHO cells. (A kinetic exclusion assay measures how much of one partner remains free in solution.)

The target of another test is T4, human CD16a V158 (human, UniProt P08637 17-208).
T4 construct: also called hCD16aV; hCD16a V158
T4 sequence (P08637 17-208 F176V limits assumed): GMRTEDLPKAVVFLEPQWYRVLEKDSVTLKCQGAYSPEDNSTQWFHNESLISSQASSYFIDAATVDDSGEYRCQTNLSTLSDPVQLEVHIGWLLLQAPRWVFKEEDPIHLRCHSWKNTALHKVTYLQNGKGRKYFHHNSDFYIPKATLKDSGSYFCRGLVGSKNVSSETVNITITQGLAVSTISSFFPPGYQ
Put plainly: SPR, kinetic fit.

For test [3], the target named is T1, human NKG2D (recombinant mFc-tagged …). Put plainly: SPR, kinetic fit, after 4 weeks at 40 °C.
Test [4] deals with T3, human BAFF-R expressed on cells. Put plainly: flow cytometry, BJAB cells, after 4 weeks at 40 °C. In general terms: In flow cytometry, cells or beads pass a laser one at a time.

Where “and” joins values, the source holds several entries; their conditions need not be identical. Equal entries are not always repeated.

As usually defined, the Kd is the free concentration of one partner at which half of the binding sites on the other are occupied at equilibrium, for simple one-to-one binding. Broadly, the EC50 is the concentration giving half of the maximal effect.

Sequence of human FcRn (P55899 24-297 limits assumed, chain 1 of 2): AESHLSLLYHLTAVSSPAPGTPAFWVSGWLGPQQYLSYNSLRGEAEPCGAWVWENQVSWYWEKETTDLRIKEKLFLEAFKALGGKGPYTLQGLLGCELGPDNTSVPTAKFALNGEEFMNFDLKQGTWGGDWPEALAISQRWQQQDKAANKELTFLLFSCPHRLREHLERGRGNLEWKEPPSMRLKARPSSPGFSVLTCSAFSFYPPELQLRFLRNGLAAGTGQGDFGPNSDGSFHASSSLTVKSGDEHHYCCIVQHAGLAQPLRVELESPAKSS
Sequence of human FcRn (P61769 21-119 limits assumed, chain 2 of 2): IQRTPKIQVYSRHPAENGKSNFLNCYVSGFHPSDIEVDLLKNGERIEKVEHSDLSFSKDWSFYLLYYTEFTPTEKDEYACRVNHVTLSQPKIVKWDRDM

B1: AB1424/AB1612 F3′ TriNKET (bispecific antibody, human IgG1, kappa)
chain: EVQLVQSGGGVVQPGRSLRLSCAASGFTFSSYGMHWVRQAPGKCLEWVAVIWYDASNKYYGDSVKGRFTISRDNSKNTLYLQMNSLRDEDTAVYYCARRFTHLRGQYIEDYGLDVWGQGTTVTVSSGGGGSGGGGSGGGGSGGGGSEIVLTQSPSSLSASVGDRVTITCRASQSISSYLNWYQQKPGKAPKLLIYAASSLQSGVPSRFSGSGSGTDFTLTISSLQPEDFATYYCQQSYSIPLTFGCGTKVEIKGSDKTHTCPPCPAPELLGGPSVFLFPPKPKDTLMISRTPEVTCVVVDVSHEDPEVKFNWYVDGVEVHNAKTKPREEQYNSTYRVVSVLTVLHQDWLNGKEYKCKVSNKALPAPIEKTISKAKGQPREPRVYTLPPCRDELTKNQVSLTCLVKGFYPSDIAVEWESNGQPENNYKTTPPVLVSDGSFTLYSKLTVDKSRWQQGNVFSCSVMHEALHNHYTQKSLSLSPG
heavy: EVQLVESGGGLVKPGGSLRLSCAASGFTFSSYSMNWVRQAPGKGLEWVSSISSSSSYIYYADSVKGRFTISRDNAKNSLYLQMNSLRAEDTAVYYCARGAPIGAAAGWFDPWGQGTLVTVSSASTKGPSVFPLAPSSKSTSGGTAALGCLVKDYFPEPVTVSWNSGALTSGVHTFPAVLQSSGLYSLSSVVTVPSSSLGTQTYICNVNHKPSNTKVDKKVEPKSCDKTHTCPPCPAPELLGGPSVFLFPPKPKDTLMISRTPEVTCVVVDVSHEDPEVKFNWYVDGVEVHNAKTKPREEQYNSTYRVVSVLTVLHQDWLNGKEYKCKVSNKALPAPIEKTISKAKGQPREPQVCTLPPSRDELTENQVSLTCLVKGFYPSDIAVEWESNGQPENNYKTTPPVLDSDGSFFLYSWLTVDKSRWQQGNVFSCSVMHEALHNHYTQKSLSLSPG
light: DIQMTQSPSSVSASVGDRVTITCRASQGISSWLAWYQQKPGKAPKLLIYAASSLQSGVPSRFSGSGSGTDFTLTISSLQPEDFATYYCQQGVSFPRTFGGGTKVEIKRTVAAPSVFIFPPSDEQLKSGTASVVCLLNNFYPREAKVQWKVDNALQSGNSQESVTEQDSKDSTYSLSSTLTLSKADYEKHKVYACEVTHQGLSSPVTKSFNRGEC
notes: Chain S: anti-BAFF-R scFv-CH2-CH3; chain H: anti-NKG2D VH-CH1-CH2-CH3; chain L: anti-NKG2D VL-CL; also called AB1612-002
In the case of B1, the Kd is 544 nM in test [1]; 1000 nM with human FcRn; 7000 nM and 6300 nM and 7900 nM and 6400 nM with human CD16b; 2.55 nM in test [2]; 131 nM (2×) and 134 nM and 122 nM with human CD16a V158; 493 nM in test [3]. The same molecule gave an EC50 in test [4] of 0.83 nM.

For the origin of these results see patent US20240360223A1 (DRAGONFLY THERAPEUTICS, published 2024).
